Source: patent publication US20230056252A1 (Gilead, published 2023)
Positions count from the first letter of the chain named.

B1: huSP34.9.6 Fab-HF (Fab, V domains shown)
VH: EVQLVESGGGLVQPGGSLRLSCAASGFTFSDYAMNWVRQAPGKGLEWVGRTRSKYNSYATYYAASVKGRFTISRDDSKNSLYLQMNSLKTEDTAVYYCVRHGNFGNSYVSWFAVWGQGTLVTVSS
VL: QAVVTQPPSLTVSPGGTVTLTCGSSTGAVTTGHYANWVQQKPGQAPRGLIGGTSNRAPGVPARFSGSLSGGKAALTISGAQPEDEAEYYCALWYSARWVFGGGTKLTVL
notes: also called HC9+LC6
B2: huSP34.5.6 Fab-HF (Fab, V domains shown)
VH: B1 VH with D31T, T51I, S57N, A64D, D76N, S80T, K89R, T90A, N106H
VL: B1 VL
notes: also called HC5+LC6
B3: huSP34.10.6 Fab-HF (Fab, V domains shown)
VH: B1 VH with N106H
VL: B1 VL
notes: also called HC10+LC6
B4: huSP34.7.6 Fab-HF (Fab, V domains shown)
VH: B1 VH with S57N
VL: B1 VL
notes: also called HC7+LC6
B5: huSP34.6.6 Fab-HF (Fab, V domains shown)
VH: B1 VH with D31T, T51I, S57N, A64D, D76N, S80T, K89R, T90A, V95M
VL: B1 VL
notes: also called HC6+LC6
B6: huSP34.10.2 Fab-HF (Fab, V domains shown)
VH: B1 VH with N106H
VL: B1 VL with P7E, G32S, H33N, G59W, V60T, S69L, I77L, A96N, R97L
notes: also called HC10+LC2
B7: huSP34.10.5 Fab-HF (Fab, V domains shown)
VH: B1 VH with N106H
VL: B1 VL with P7E, G59W, V60T, S69L, I77L
notes: also called HC10+LC5
B8: huSP34.10.4 Fab-HF (Fab, V domains shown)
VH: B1 VH with N106H
VL: B1 VL with P7E, G32S, N55K, G59W, V60T, S69L, I77L, R97L
notes: also called HC10+LC4
B9: huSP34.9.5 Fab-HF (Fab, V domains shown)
VH: B1 VH
VL: B1 VL with P7E, G59W, V60T, S69L, I77L
notes: also called HC9+LC5
B10: huSP34.10.1 Fab-HF (Fab, V domains shown)
VH: B1 VH with N106H
VL: QAVVTQEPSLTVSPGGTVTLTCRSSTGAVTTSNYANWVQQKPGQAPRGLIGGTNKRAPWTPARFSGSLIGDKAALTLSGAQPEDEAEYYCALWYSNLWVFGGGTKLTVL
notes: also called HC10+LC1
B11: huSP34.3.7 Fab-HF (Fab, V domains shown)
VH: B1 VH with S30N, D31T, T51I, S57N, A64D, K89R, N106H, V114Y
VL: B10 VL with S32G, N33H, W59G, T60V, I69L, D71G, L77I
notes: also called HC3+LC7
B12: huSP34.12.10 Fab-HF (Fab, V domains shown)
VH: B1 VH with D31T, G49A, T51I, S57N, K89R, N106H, V114Y
VL: B1 VL with S54N, N55K, A96N
notes: also called HC12+LC10
B13: huSP34.3.9 Fab-HF (Fab, V domains shown)
VH: B1 VH with S30N, D31T, T51I, S57N, A64D, K89R, N106H, V114Y
VL: B1 VL with S54N, N55K, A96N, R97L
notes: also called HC3+LC9
B14: huSP34.11.10 Fab-HF (Fab, V domains shown)
VH: B1 VH with D31T, T51I, S57N, K89R, N106H, V114Y
VL: B1 VL with S54N, N55K, A96N
notes: also called HC11+LC10
B15: huSP34.11.7 Fab-HF (Fab, V domains shown)
VH: B1 VH with D31T, T51I, S57N, K89R, N106H, V114Y
VL: B10 VL with S32G, N33H, W59G, T60V, I69L, D71G, L77I
notes: also called HC11+LC7
B16: huSP34.13.7 Fab-HF (Fab, V domains shown)
VH: B1 VH with D31T, T51I, S57N, S80T, K89R, N106H, V114Y
VL: B10 VL with S32G, N33H, W59G, T60V, I69L, D71G, L77I
notes: also called HC13+LC7
B17: huSP34.11.8 Fab-HF (Fab, V domains shown)
VH: B1 VH with D31T, T51I, S57N, K89R, N106H, V114Y
VL: B1 VL with P7E, S54N, N55K, S69L, A96N
notes: also called HC11+LC8
B18: huSP34.11.9 Fab-HF (Fab, V domains shown)
VH: B1 VH with D31T, T51I, S57N, K89R, N106H, V114Y
VL: B1 VL with S54N, N55K, A96N, R97L
notes: also called HC11+LC9
B19: huSP34.12.7 Fab-HF (Fab, V domains shown)
VH: B1 VH with D31T, G49A, T51I, S57N, K89R, N106H, V114Y
VL: B10 VL with S32G, N33H, W59G, T60V, I69L, D71G, L77I
notes: also called HC12+LC7
B20: huSP34.12.8 Fab-HF (Fab, V domains shown)
VH: B1 VH with D31T, G49A, T51I, S57N, K89R, N106H, V114Y
VL: B1 VL with P7E, S54N, N55K, S69L, A96N
notes: also called HC12+LC8
B21: huSP34.12.9 Fab-HF (Fab, V domains shown)
VH: B1 VH with D31T, G49A, T51I, S57N, K89R, N106H, V114Y
VL: B1 VL with S54N, N55K, A96N, R97L
notes: also called HC12+LC9
B22: huSP34.34.6 Fab-HF (Fab, V domains shown)
VH: B1 VH with S30N, D31T, T51I, S57N, V95M, N106H, V114Y
VL: B1 VL
notes: also called HC34+LC6
B23: huSP34.35.15 Fab-HF (Fab, V domains shown)
VH: B1 VH with S30N, S57N, V95M, N106H, V114Y
VL: B1 VL with S54N, N55K
notes: also called HC35+LC15
B24: huSP34.35.6 Fab-HF (Fab, V domains shown)
VH: B1 VH with S30N, S57N, V95M, N106H, V114Y
VL: B1 VL
notes: also called HC35+LC6
B25: huSP34.3.13 Fab-HF (Fab, V domains shown)
VH: B1 VH with S30N, D31T, T51I, S57N, A64D, K89R, N106H, V114Y
VL: B1 VL with P7E, S69L, A96N
notes: also called HC3+LC13
B26: huSP34.34.18 Fab-H (Fab, V domains shown)
VH: B1 VH with S30N, D31T, T51I, S57N, V95M, N106H, V114Y
VL: B1 VL with G59W, V60T
notes: also called HC34+LC18
B27: huSP34.34.10 Fab-HF (Fab, V domains shown)
VH: B1 VH with S30N, D31T, T51I, S57N, V95M, N106H, V114Y
VL: B1 VL with S54N, N55K, A96N
notes: also called HC34+LC10
B28: huSP34.34.12 Fab-HF (Fab, V domains shown)
VH: B1 VH with S30N, D31T, T51I, S57N, V95M, N106H, V114Y
VL: B1 VL with S54N, N55K, G59W, V60T, A96N
notes: also called HC34+LC12
B29: huSP34.35.10 Fab-HF (Fab, V domains shown)
VH: B1 VH with S30N, S57N, V95M, N106H, V114Y
VL: B1 VL with S54N, N55K, A96N
notes: also called HC35+LC10
B30: huSP34.34.11 Fab-HF (Fab, V domains shown)
VH: B1 VH with S30N, D31T, T51I, S57N, V95M, N106H, V114Y
VL: B10 VL with R23G, S32G, N33H, W59G, T60V, I69L, D71G
notes: also called HC34+LC11
B31: huSP34.34.15 Fab-HF (Fab, V domains shown)
VH: B1 VH with S30N, D31T, T51I, S57N, V95M, N106H, V114Y
VL: B1 VL with S54N, N55K
notes: also called HC34+LC15
B32: huSP34.35.12 Fab-H (Fab, V domains shown)
VH: B1 VH with S30N, S57N, V95M, N106H, V114Y
VL: B1 VL with S54N, N55K, G59W, V60T, A96N
notes: also called HC35+LC12
B33: huSP34.37.10 Fab-HF (Fab, V domains shown)
VH: B1 VH with S30N, D31T, S57N, V95M, N106H, V114Y
VL: B1 VL with S54N, N55K, A96N
notes: also called HC37+LC10
B34: huSP34.34.14 Fab-HF (Fab, V domains shown)
VH: B1 VH with S30N, D31T, T51I, S57N, V95M, N106H, V114Y
VL: B1 VL with A96N
notes: also called HC34+LC14
B35: huSP34.34.16 Fab-HF (Fab, V domains shown)
VH: B1 VH with S30N, D31T, T51I, S57N, V95M, N106H, V114Y
VL: B1 VL with G59W, V60T, A96N
notes: also called HC34+LC16
B36: huSP34.34.17 Fab-HF (Fab, V domains shown)
VH: B1 VH with S30N, D31T, T51I, S57N, V95M, N106H, V114Y
VL: B1 VL with S54N, N55K, G59W, V60T
notes: also called HC34+LC17
B37: huSP34.36.10 Fab-HF (Fab, V domains shown)
VH: B1 VH with S30N, T51I, S57N, V95M, N106H, V114Y
VL: B1 VL with S54N, N55K, A96N
notes: also called HC36+LC10
B38: huSP34.3.19 Fab-HF (Fab, V domains shown)
VH: B1 VH with S30N, D31T, T51I, S57N, A64D, K89R, N106H, V114Y
VL: B1 VL with P7E, S54N, N55K, S69L
notes: also called HC3+LC19

target: T1, biotinylated CD3 epsilon:delta heterodimer protein (Amsbio AMS.CDD-H52WO) (Homo sapiens (Human), UniProt P07766 23-126; P04234 22-105); assay: BLI (Octet), CD3 on SA sensor, Fab analyte;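 for result: biolayer interferometry with biotinylated CD3 epsilon:delta captured on streptavidin sensors, Fab analyte at several concentrations up to 300 nM, 100 s association then 300 s dissociation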
T1 construct: also called CD3 heterodimer
Protocol: (§1) The CD3 binding kinetics of the purified huSP34 Fabs were determined using OctetRed384 (Pall ForteBio, CA) biolayer interferometry (BLI). […] Streptavidin (SA) coated biosensors tips (Pall ForteBio, CA) were used to capture biotinylated CD3 epsilon: delta heterodimer and typical immobilization levels captured on the SA sensors were 1 nm which approximately translates to 300 ng/ml of captured protein. For kinetic measurements biosensors were first pre-wetted with assay buffer for 10 minutes to remove protective sucrose coating followed by the recommended regeneration conditions for standardization of the biosensor surface for the experiment. In order to load the biosensors with antigen, 300 ng/ml of biotinylated CD3 epsilon: delta heterodimer protein (Amsbio AMS.CDD-H52WO) was immobilized on the SA sensor for 900 seconds. The CD3 loaded biosensors were then blocked with 20 ug/ml biocytin (sigma) for 200 seconds and then dipped into assay buffer containing wells for 200 seconds to remove any non-specific protein or unbound CD3 heterodimer.
(§2) CD3 loaded and biocytin blocked biosensors were then transferred into fresh assay buffer for 200 seconds to collect a baseline read. Kinetic measurements for anti-CD3 Fab and bispecific antibody binding were performed by dipping the CD3-coated biosensors into wells containing multiple concentrations of Fab or Ab (0-300 nM) for 100 seconds followed by a 300 second dissociation time by transferring the biosensors into assay buffer containing wells. The CD3 loaded sensors were then regenerated for the next kinetic measurement. Biosensors were generated by removing bound Fabs or Ab from immobilized CD3 on SA biosensors. Regeneration conditions used consisted of 3 cycles of 5 seconds of dipping the biosensors in Regeneration Buffer (10 mM Glycine HCl pH 1.5) followed by Assay Buffer (10 mM sodium phosphate pH 7.4, 140 mM Sodium Chloride, 0.005% Tween20 with 0.2% BSA).

Row | Binder | Kd [nM] | koff [s⁻¹] | kon [M⁻¹ s⁻¹] | binding result
1 | B1 | 289 | 0.169 | 582000 | 
2 | B2 | 268 | 0.0746 | 280000 | 
3 | B3 | 314 | 0.157 |  | 
4 | B4 | 425 | 0.17 | 403000 | 
5 | B5 | 75 | 0.0292 | 464000 | 
6 | B6 | 307 | 0.0664 | 225000 | 
7 | B7 | 222 | 0.0827 |  | 
8 | B8 |  |  |  | no binding (tested: 0-300 nM)
9 | B9 |  |  |  | no binding (tested: 0-300 nM)
10 | B10 |  |  |  | no binding (tested: 0-300 nM)

target: T1, biotinylated CD3 epsilon:delta …; assay: BLI (Octet), CD3 on SA sensor, Fab analyte; remark: another data set of the same source
Protocol: as §1, §2

Row | Binder | Kd [nM] | koff [s⁻¹] | kon [M⁻¹ s⁻¹]
11 | B11 | 5.6 | 0.00168 | 323000
12 | B12 | 4.2 | 0.00205 | 501000
13 | B13 | 3.5 | 0.00221 | 632000
14 | B14 | 2.8 | 0.00192 | 697000
15 | B15 | 3.6 | 0.00212 | 613000
16 | B16 | 2.8 | 0.00275 | 1.01e+06
17 | B17 | 2.8 | 0.00165 | 610000
18 | B18 | 3.4 | 0.00284 | 898000
19 | B19 | 2.7 | 0.00244 | 966000
20 | B20 | 3.4 | 0.00166 | 493000
21 | B21 | 3.2 | 0.00335 | 1.04e+06

target: T1, biotinylated CD3 epsilon:delta …; assay: BLI (Octet), CD3 on SA sensor, Fab analyte; remark: another data set of the same source
Protocol: as §1, §2

Row | Binder | Kd [nM] | koff [s⁻¹] | kon [M⁻¹ s⁻¹]
22 | B22 | 8 | 0.00357 | 449000
23 | B23 | 303 | 0.17 | 560000
24 | B24 | 178 | 0.187 | 1.55e+06
25 | B25 | 6.2 | 0.00129 | 218000
26 | B26 | 87.1 | 0.0224 | 257000
27 | B27 | 4 | 0.000303 | 155000
28 | B28 | 8.1 | 0.0014 | 189000
29 | B29 | 224 | 0.0759 | 339000
30 | B30 | 10.8 | 0.00118 | 143000
31 | B31 | 14.7 | 0.0015 | 109000
32 | B32 | 125 | 0.103 | 2.08e+06
33 | B33 | 16.1 | 0.00267 | 171000
34 | B34 | 3.9 | 0.00126 | 345000
35 | B35 | 28.8 | 0.00599 | 208000
36 | B36 | 29.9 | 0.00816 | 273000
37 | B37 | 5.8 | 0.00929 | 1.6e+06
38 | B38 | 9.9 | 0.00164 | 193000
